The target in this assay is human glyceraldehyde-3-phosphate dehydrogenase (GAPDH) (human, UniProt P04406 1-335, fluorescent dye NT-647 (Monolith NT Protein Labeling Kit RED-NHS)). Nature of the assay: MST.

By Kd is commonly meant the equilibrium constant for the complex coming apart. Low values mean tighter binding, high ones weaker binding.

Chain of human glyceraldehyde-3-phosphate dehydrogenase (GAPDH) (P04406 whole entry): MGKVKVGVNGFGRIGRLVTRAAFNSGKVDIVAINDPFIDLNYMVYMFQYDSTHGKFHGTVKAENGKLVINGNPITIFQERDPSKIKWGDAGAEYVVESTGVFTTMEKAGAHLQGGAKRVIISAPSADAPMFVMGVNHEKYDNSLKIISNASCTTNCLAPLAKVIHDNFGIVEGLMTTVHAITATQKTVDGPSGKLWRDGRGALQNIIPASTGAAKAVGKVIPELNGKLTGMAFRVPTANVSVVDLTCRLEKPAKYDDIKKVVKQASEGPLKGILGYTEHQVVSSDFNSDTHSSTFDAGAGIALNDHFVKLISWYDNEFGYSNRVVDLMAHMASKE

Molecule GLLRKGGEKIGEKLKKIGQKIKNFFQKLVPQPEQ [Mouse cathelicidin-related antimicrobial peptide] had a Kd of 472 nM.

(Values after article PMC10315065 (Journal of Innate Immunity, 2023).)
